From patent publication US12692310B2, “ASIC1 channel antagonist antibody” (ShanghaiTech University, priority 2019, dated 2026)

T1: hASIC1a-ECD (Homo sapiens, UniProt P78348)
T1 construct: The ectodomain of hASIC1a (hASIC1a-ECD) with an N-terminal fused IL-2 tag and Flag tag; IL-2 tag (N); made in house; host or cells: HEK293F
T1 sequence (P78348 67-427 limits assumed): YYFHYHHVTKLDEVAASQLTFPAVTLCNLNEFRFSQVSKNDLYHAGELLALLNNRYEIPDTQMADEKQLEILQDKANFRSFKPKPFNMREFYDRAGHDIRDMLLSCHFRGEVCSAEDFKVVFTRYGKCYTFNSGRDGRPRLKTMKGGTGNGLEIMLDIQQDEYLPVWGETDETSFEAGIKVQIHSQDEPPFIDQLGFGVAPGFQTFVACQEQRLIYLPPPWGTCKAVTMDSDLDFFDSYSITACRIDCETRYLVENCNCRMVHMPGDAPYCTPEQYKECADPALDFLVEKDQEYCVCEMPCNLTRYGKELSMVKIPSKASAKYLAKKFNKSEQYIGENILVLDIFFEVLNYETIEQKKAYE

B1: ASC06-Fab: antigen-binding fragment of ASC06-IgG1 prepared by digesting ASC06-IgG1 with papain (antibody, V domains shown)
VH: QVQLQQSGGGLVQPGGSLRLSCAASGFTFSSYAMSWVRQAPGKGLEWVSAISGSGGSTYYADSVKGRFTISRDNSKNTLYLQMNSLRAEDTAVYYCAKDSFYGYSKGDWGQGTLVTVSS
VL: QSALTQPASVSGSPGQSITISCTGTSSDVGAYNYVSWYQQQPGKAPKLMIYGVSNRPSGVSNRFSGSKSGNAASLTISGLQAEDEADYYCSSYTSSSTYVFGTGTKLTVLG

Legend:
[1] = target: T2, hASIC1a (hASIC1a-mCherry, 4C12 cells) (Homo sapiens, UniProt P78348); test: FLIPR assay of acid-induced ASIC1a-mediated calcium influx in 4C12 cells; assay type: cell-based; settings: at 30 µM
T2 construct: expressed in transfected cells
T2 sequence (P78348 whole entry): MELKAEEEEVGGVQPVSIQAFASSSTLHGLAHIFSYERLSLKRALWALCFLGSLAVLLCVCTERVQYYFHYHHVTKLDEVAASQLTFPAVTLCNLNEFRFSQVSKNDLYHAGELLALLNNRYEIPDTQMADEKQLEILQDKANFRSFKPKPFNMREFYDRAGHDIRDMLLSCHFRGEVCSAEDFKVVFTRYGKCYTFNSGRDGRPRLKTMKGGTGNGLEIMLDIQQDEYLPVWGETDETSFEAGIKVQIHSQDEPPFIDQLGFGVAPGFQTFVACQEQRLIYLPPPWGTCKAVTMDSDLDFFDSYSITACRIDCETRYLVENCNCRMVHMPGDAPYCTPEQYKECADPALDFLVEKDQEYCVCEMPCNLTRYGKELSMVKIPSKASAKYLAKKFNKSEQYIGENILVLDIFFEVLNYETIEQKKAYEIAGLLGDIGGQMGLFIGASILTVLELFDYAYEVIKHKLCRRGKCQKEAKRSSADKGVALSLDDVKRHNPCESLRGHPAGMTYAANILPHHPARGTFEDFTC
Method: Calcium Influx. The FLIPR Calcium 5 Assay kit was used to determine the acid-induced calcium influx in the hASIC1a-mCherry-expressing stable CHO-K1 cells (4C12). Cells were seeded in a clear bottom 96-well plate at a density of 10,000 per well 24 h before assay. Assay buffer and dye loading buffer (1.26 mM CaCl2, 0.5 mM MgCl2, 0.4 mM MgSO4, 5.33 mM KCl, 0.44 mM KH2PO4, 4.17 mM NaHCO3, 138 mM NaCl, 0.338 mM Na2HPO4, 20 mM HEPES, pH 7.4) were prepared according to the manufacturer's instruction. Probenecid was added to the dye loading buffer to a final concentration of 2.5 mM immediately before use. Fifty microliters of the assay buffer containing ASC06-IgG1 was incubated with the 4C12 cells for 30 min at 37° C., and an equal volume of the dye loading buffer was added. […] Cells were incubated with the dye loading buffer for 1 h before reading on an FDSS/μCELL plate reader (Hamamatsu). […] The progression curve of the calcium signal produced in each well was recorded continuously for 10 s before the addition of the activation buffer (preread) and 170 s after the addition on an FDSS/μCELL (excitation wavelength: 480 nm; emission wavelength: 540 nm) FLIPR reader. […]
The calcium influx of the ASIC1a was measured on a FLIPR instrument using the stable cell line 4C12 expressing hASIC1a-mCherry fusion. […]

hASIC1a-ECD [2] = target: T1, hASIC1a-ECD; test: Gel filtration of hASIC1a-ECD and ASC06-Fab complex; assay type: binding; settings: Superdex 200
Method: (§1) Negative Stain Electron Microscopy (EM): (1) Sample Preparation and Data Collection. The antigen-binding fragment of ASC06-IgG1 (ASC06-Fab) was prepared by digesting ASC06-IgG1 with papain followed by protein A affinity purification and gel filtration. The ectodomain of hASIC1a (hASIC1a-ECD) with an N-terminal fused IL-2 tag and Flag tag was expressed in HEK293F cells and purified by anti-Flag M2 magnetic beads and gel filtration using PBS buffer, pH 7.4. The ASC06-Fab and hASIC1a-ECD were incubated at a molar ratio of 3:1 in PBS buffer, pH 7.4, overnight at 4° C. to form a tertiary complex. This complex was further isolated by gel filtration. […] The peak fractions containing this complex were collected and subjected to negative staining EM.
To understand the nature of binding of ASC06 to hASIC1a, a complex was formed by mixing hASIC1a-ECD and ASC06-Fab. The complex, hASIC1a-ECD and ASC06-Fab were resolved using gel filtration.

hASIC1a-ECD [3] = target: T1, hASIC1a-ECD; test: Negative stain electron microscopy of hASIC1a-ECD/ASC06-Fab complex; settings: negative staining EM
Method: as §1
The EM samples were prepared by diluting the purified complex of hASIC1a-ECD and ASC06-Fab to 0.01 mg/mL. […]
All micrographs were recorded with a Tecnai G2 Spirit transmission electron microscope (FEI) equipped with an LaB6 cathode operated at 120 kV and a 4,000×4,000 Eagle CCD camera at a calibrated magnification of 67,000 times, resulting in a pixel size of 1.74 Å.
EMI mage Processing and 3D Reconstruction. […] All of the recorded micrographs were first decimated twofold (resulting in a pixel size of 3.48 Å). […]

Molecule	inhibition of calcium influx [1]	complex formation with hASIC1a-ECD homotrimer (hASIC1a-ECD [2])	location of epitope (hASIC1a-ECD [3])
N=C(N)NC(=O)c1nc(Cl)c(N)nc1N [amiloride]	21%	–	–
B1	–	formed a stable complexes	located on a surface formed by two hASIC1a-ECD subunits
